Values quoted from earlier work, collected in publication PMC3760879.

Biological target: Asp97 (UniProt position 97, VFRYIDWLLTV)
Conditions: dark/ground state implied (protonation of the acceptor group at neutral pH); not explicitly stated

In the case of “Proteorhodopsin (PR) (uncultured marine gamma-proteobacterium (the article says only 'γ-proteobacteria'))”, the pKa is given as “around 7.2”.
